Data set [1] in a line: mGM-CSF concentration in sera at day 8 of the DSS colitis study. The following applies: final day of DSS study.
Method: At day 8, the final day of the study, mGM-CSF concentrations were measured in sera of all mice.
In a further data set the test system is DSS-induced colitis. Nature of the data set: DSS-induced colitis model (7% DSS), proof of concept with pCMV-GMCSF plasmid DNA. The class given is in vivo, mice. The following applies: plasmid single injection day 0 + EP, drugs and protein daily. The protocol:
Two concentrations of pCMV-mGMCSF were tested side by side with a control plasmid (pNull) and two mGM-CSF protein formulations, non-pegylated and pegylated in the DSS-induced colitis model (N=10/group). A single plasmid DNA injection was administered at day 0 followed by electroporation. Murine GM-CSF protein was injected s.c. daily. Disease was induced with 7% DSS in the drinking water and clinical scores (DIA) were recorded daily.
(§1) Likewise, the DSS-induced mouse colitis model is useful for evaluating therapies for UC, IBD and CD. Disease is induced in mice by daily administration of 5% or 7% dextran sodium sulfate (DSS) in the drinking water over 8 days. Disease progression is monitored by the Daily Activity Index (DAI), a cumulative index of: weight loss, stool consistency, and rectal bleeding, which mimics the symptoms of UC, IBD and/or CD.
vii. […] In this study the efficacy of pGMCSF plasmid DNA was evaluated side by side with Mesopram, Metronidazole, non-pegylated or pegylated mGM-CSF. The disease was induced using 7% DSS, administered daily in the drinking water. Mesopram, Metronidazole and mGM-CSF protein were administered daily, using the same dosing regimen as described for the validation study. pGMCSF plasmid DNA was injected at day 0 followed by electroporation. […]

Data set [2] in a line: Pharmacokinetic study of mGM-CSF protein formulations, serum mGM-CSF ELISA. The following applies: i.m. injection. Type of data set: in vivo, BalbC mice. The protocol:
FIG. 40 illustrates the use of ELISA for detection of murine GM-CSF. BalbC mice (n=5/group) were injected i.m. with 5 or 10 μg non-pegylated, or 5 μg pegylated mGM-CSF. Mice received either a single injection or 4 daily injections. Serum was obtained 1, 3, 6, and 12 hours following the single injection or the fourth injection. mGM-CSF levels in serum were measured using the ELISA from R&D (Minneapolis).
i. GM-CSF ELISA validation. A commercially available ELISA (R&D, Minneapolis) was validated for the detection of murine (m)GM-CSF in serum. In a pharmacokinetic study two formulations of mGM-CSF protein, non-pegylated or pegylated, were injectedi.m. and serum samples were assayed for mGM-CSF. […] The levels of non-pegylated mGM-CSF dropped rapidly within 3 hours following administration, whereas pegylated mGM-CSF was detectable over a 12 hour period.
A general note: An ELISA detects its analyte on a solid surface through an enzyme-linked reagent.

For data set [3], the system named is DSS-induced colitis in Balb/C mice. Nature of the data set: DSS-induced colitis model (5% DSS), validation, Disease Activity Index. The following applies: daily treatment, Mesopram/Metronidazole 50 mg/kg IP, mGM-CSF 5 μg non-pegylated, 5 or 10 μg pegylated. Type of data set: in vivo. How it is done: Disease was induced in BalbC mice (N=10/group) by DSS (5%) applied daily in the drinking water. Mesopram, Metronidazole, or yeast expressed non-pegylated respectively pegylated mGM-CSF, was administered daily over a period of 8 days. Clinical scores (Daily Activity Index (DAI), a cumulative index of: weight loss, stool consistency, and rectal bleeding) were recorded daily.
as §1
vi. DSS-induced colitis model. Prior to the gene delivery study the model was established and validated in Balb/C mice using non-pegylated and pegylated mGM-CSF protein. Disease was induced in Balb/C mice with 5% dextran sodium sulfate (DSS), provided in the drinking water every day over a period of 8 days. As the main endpoint, the Disease Activity Index (DAI, a cumulative index of: weight loss, stool consistency, and rectal bleeding) was recorded daily. […]

B1: non-pegylated mGM-CSF: yeast expressed non-pegylated murine GM-CSF protein (protein, UniProt P01587 18-141, looked up)
Granulocyte-macrophage …: APTRSPITVTRPWKHVEAIKEALNLLDDMPVTLNEEVEVVSNEFSFKKLTCVQTRLKIFEQGLRGNFTKLKGALNMTASYYQTYCPPTPETDCETQVTTYADFIDSLKTFLTDIPFECKKPGQK
B1: the “GM-CSF in sera at day 8” value in data set [1] was “could be measured”. For the same molecule, the “disease scores (DAI)” value in the data set on DSS-induced colitis was “efficacious”. Also, the “time within which serum levels dropped rapidly following administration” value in data set [2] was at most 3 h. For the same molecule, in data set [3], the DAI score result was “significantly reduced”.

B2: pegylated mGM-CSF: pegylated murine GM-CSF protein (conjugate, UniProt P01587 18-141, looked up)
Granulocyte-macrophage …: B1 Granulocyte-macrophage …
modifications: PEG
notes: pegylated murine GM-CSF protein
For B2, in the data set with DSS-induced colitis, the “disease scores (DAI)” value is recorded as “efficacious”. The “period over which detectable in serum” value in data set [2] was determined as 12 h. The DAI score entry in data set [3] was “significantly reduced”.
